Numbering of substitutions follows the chain as printed.
B1: wild-type Ncd dimeric motor protein (MGSM-H293-K700) (domain or fragment)
chain: MGSMHAALSTEVVHLRQRTEELLRCNEQQAAELETCKEQLFQSNMERKELHNTVMDLRGNIRVFCRIRPPLESEENRMCCTWTYHDESTVELQSIDAQAKSKMGQQIFSFDQVFHPLSSQSDIFEMVSPLIQSALDGYNICIFAYGQTGSGKTYTMDGVPESVGVIPRTVDLLFDSIRGYRNLGWEYEIKATFLEIYNEVLYDLLSNEQKDMEIRMAKNNKNDIYVSNITEETVLDPNHLRHLMHTAKMNRATASTAGNERSSRSHAVTKLELIGRHAEKQEISVGSINLVDLAGSESPKTSTRMTETKNINRSLSELTNVILALLQKQDHIPYRNSKLTHLLMPSLGGNSKTLMFINVSPFQDCFQESVKSLRFAASVNSCKMTKAKRNRYLNNSVANSSTQSNNSGSFDK
B2: NcdY485K dimeric motor protein (MGSM-H293-K700) (domain or fragment)
chain: B1 chain with Y197K
B3: NcdY485E dimeric motor protein (MGSM-H293-K700) (domain or fragment)
chain: B1 chain with Y197E
B4: NcdY485N dimeric motor protein (MGSM-H293-K700) (domain or fragment)
chain: B1 chain with Y197N

Biological target: microtubules
Test: not given

K (M,MT) of steady-state ATPase, 0.5 µM motor + 0-25 µM microtubules [µM]	Binder
17	B1
1.6	B2

Biological target: microtubules
Test: co-sedimentation; microtubule pelleting assay: 0.7 µM motor with 2 µM microtubules and 0.1 mM Mg·ADP in HEM100 (10 mM HEPES pH 7.2, 1 mM EGTA, 1 mM MgCl2, 100 mM NaCl); centrifugation, SDS-PAGE; corrected for motor that pelleted without microtubules

MT binding with ADP (fraction bound) (fraction bound)	Binder
0.2	B1
0.29	B3
0.37	B4
0.6	B2

Reference: article PMC3473065
